The assay has as its target T1, His-tagged SMAD4 WT (Mothers against decapentaplegic homolog 4) (UniProt Q13485 1-552).
T1 sequence (looked up): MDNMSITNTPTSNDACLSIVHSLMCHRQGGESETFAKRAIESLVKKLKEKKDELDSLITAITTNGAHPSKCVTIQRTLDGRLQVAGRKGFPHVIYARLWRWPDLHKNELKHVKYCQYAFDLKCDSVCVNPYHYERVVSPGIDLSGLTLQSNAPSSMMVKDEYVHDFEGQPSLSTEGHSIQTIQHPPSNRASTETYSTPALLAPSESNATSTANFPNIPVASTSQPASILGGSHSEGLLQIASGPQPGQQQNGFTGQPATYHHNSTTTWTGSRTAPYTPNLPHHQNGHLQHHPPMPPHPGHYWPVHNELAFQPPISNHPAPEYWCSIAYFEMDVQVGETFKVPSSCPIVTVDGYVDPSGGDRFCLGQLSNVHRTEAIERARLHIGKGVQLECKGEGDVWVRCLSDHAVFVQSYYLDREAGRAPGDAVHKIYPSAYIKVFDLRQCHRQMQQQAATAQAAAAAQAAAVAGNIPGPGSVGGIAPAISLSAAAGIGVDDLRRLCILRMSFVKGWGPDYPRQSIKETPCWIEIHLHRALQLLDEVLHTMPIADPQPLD
Put plainly: cell-based or functional assay.

B1: Flag-tagged SMAD3 WT (natural protein, UniProt P84022 1-425, looked up)
chain: MSSILPFTPPIVKRLLGWKKGEQNGQEEKWCEKAVKSLVKKLKKTGQLDELEKAITTQNVNTKCITIPRSLDGRLQVSHRKGLPHVIYCRLWRWPDLHSHHELRAMELCEFAFNMKKDEVCVNPYHYQRVETPVLPPVLVPRHTEIPAEFPPLDDYSHSIPENTNFPAGIEPQSNIPETPPPGYLSEDGETSDHQMNHSMDAGSPNLSPNPMSPAHNNLDLQPVTYCEPAFWCSISYYELNQRVGETFHASQPSMTVDGFTDPSNSERFCLGLLSNVNRNAAVELTRRHIGRGVRLYYIGGEVFAECLSDSAIFVQSPNCNQRYGWHPATVCKIPPGCNLKIFNNQEFAALLAQSVNQGFEAVYQLTRMCTIRMSFVKGWGAEYRRQTVTSTPCWIELHLNGPLQWLDKVLTQMGSPSIRCSSVS
Regarding B1, the “SBE4-luciferase reporter activity upon TGFβ (10 ng/ml) stimulation, HEK293T cells with endogenous SMAD4 and SMAD3, fold-of-change” value is greater than 3 fold.
